Assay results published in patent US20030152571A1 (GlaxoSmithKline, published 2003).

Experiments:
[1] = target: T1, human vitronectin receptor αvβ3 purified from human placenta (human, UniProt P06756 31-1048; P05106 27-788); assay: BIAcore; immobilized αvβ3, mAb in solution
T1 construct: mature; Detergent-solubilised native heterodimer; also called αvβ3 receptor; human αvβ3 protein receptor
Method: (§1) The αᵥβ₃ was immobilized by inserting the αᵥβ₃ into a phospholipid vesicle and producing a hybrid bilayer membrane on a hydrophobic sensor surface. […] Samples of the mAbs were passed over this surface and the rates at which they bound and then dissociated from the surface were measured and analyzed using software provided with the instrument.

[2] = target: rabbit αvβ3 receptor on rabbit smooth muscle cells (rabbit, UniProt A0A5F9DQF7 1-123); assay: cell-based or functional assay
[3] = target: T2, human αvβ3 receptor on cells or in tissue (human, UniProt P06756 31-1048; P05106 27-788); assay: cell-based or functional assay
[4] = target: T1, human vitronectin receptor αvβ3 …; assay: BIAcore, αvβ3 immobilized in a hybrid bilayer membrane on the sensor surface, mAb in solution
Method: as §1

[5] = target: T2, human αvβ3 receptor on cells or in …; assay: method not stated; reference is the rabbit αvβ3 receptor
[6] = target: T1, human vitronectin receptor αvβ3 …; assay: BIAcore; αvβ3 in a hybrid bilayer membrane on the sensor, mAb at 100, 25, 6 nM in triplicate; αvβ3 immobilized in hybrid bilayer membrane on the sensor; mAb at 100, 25, 6 nM in triplicate
Method: as §1

[7] = target: T1, human vitronectin receptor αvβ3 …; assay: not stated ('depending on the assay employed')

T1 sequence (P06756 31-1048, form in doubt, chain 1 of 2): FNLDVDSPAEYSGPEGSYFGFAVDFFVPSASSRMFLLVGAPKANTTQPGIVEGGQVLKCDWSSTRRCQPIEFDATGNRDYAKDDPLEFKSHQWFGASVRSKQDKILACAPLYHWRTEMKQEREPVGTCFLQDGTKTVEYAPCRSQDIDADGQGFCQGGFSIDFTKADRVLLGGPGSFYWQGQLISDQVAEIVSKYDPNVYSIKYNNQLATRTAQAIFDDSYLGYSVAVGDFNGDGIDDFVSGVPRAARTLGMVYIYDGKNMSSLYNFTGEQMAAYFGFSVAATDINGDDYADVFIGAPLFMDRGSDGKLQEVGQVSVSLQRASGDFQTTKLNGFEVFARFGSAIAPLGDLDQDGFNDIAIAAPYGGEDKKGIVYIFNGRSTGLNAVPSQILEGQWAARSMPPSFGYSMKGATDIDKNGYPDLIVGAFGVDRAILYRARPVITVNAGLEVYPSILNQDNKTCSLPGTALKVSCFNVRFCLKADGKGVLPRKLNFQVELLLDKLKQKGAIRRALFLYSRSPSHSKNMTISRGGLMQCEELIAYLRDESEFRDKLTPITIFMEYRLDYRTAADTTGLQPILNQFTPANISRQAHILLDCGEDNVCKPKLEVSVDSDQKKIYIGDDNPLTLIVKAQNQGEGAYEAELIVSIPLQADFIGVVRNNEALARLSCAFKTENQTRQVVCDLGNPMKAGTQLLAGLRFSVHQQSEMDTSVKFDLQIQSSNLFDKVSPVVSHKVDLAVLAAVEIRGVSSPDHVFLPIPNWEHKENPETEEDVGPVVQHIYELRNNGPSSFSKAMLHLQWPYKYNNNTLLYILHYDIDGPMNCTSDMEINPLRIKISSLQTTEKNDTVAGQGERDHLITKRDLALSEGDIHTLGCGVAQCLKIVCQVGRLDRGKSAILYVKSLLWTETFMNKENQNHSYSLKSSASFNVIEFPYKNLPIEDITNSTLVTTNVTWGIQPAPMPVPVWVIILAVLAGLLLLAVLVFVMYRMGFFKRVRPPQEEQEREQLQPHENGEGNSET
T1 sequence (P05106 27-788, form in doubt, chain 2 of 2): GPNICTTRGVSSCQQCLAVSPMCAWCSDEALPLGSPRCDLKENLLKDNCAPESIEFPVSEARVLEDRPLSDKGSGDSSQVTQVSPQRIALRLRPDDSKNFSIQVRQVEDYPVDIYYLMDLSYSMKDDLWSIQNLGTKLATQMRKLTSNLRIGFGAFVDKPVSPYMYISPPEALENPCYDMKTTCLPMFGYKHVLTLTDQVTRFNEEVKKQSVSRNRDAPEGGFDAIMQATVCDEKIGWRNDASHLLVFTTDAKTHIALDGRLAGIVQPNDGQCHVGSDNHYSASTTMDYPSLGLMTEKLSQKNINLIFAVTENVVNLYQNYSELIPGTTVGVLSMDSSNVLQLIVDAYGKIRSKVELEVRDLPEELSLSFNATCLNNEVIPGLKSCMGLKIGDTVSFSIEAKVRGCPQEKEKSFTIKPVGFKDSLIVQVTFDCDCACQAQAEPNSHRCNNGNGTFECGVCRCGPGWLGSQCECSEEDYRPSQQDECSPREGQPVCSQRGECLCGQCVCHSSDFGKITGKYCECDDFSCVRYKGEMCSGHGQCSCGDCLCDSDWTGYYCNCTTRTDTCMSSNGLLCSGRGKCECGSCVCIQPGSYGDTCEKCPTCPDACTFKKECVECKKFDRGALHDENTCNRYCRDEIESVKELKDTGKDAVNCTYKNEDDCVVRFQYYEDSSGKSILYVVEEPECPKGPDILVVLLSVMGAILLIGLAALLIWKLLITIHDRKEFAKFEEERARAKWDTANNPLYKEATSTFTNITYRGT
Sequence of rabbit αvβ3 receptor on rabbit smooth muscle cells (A0A5F9DQF7 entry or part of it): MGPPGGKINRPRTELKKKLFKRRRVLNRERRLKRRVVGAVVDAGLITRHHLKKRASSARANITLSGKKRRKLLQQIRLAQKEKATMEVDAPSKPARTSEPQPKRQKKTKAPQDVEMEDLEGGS
T2 sequence (P06756 31-1048, chain 1 of 2): as the sequence (P06756 31-1048, form in doubt, chain 1 of 2) above
T2 sequence (P05106 27-788, chain 2 of 2): as the sequence (P05106 27-788, form in doubt, chain 2 of 2) above

B1: humanized D12 antibody HZ-D12 (IgG1) (antibody, V domains shown)
VH: QVQLVQSGAEVKKPGASVKVSCKASGYAFTSYNMYWVRQAPGQGLEWIGYIDPYNGDTFYNQKFKGKATLTVDKSTSTAYMELSSLRSEDTAVYYCARQNYGSFAYWGQGTLVTVSS
VL: DIVLTQSPGTLSLSPGERATLSCRASQSISNHLHWYQQKPGQAPRLLIKYASQSISGIPSRFSGSGSGTDFTLTISRLEPEDFAVYYCQQSNSWPFTFGQGTKVEIK
notes: also called HuD12; D12HZHC 1-0 / D12HZLC 1-0
[1]
  Kd: 1 nM
[2]
  IC50, rabbit SMC migration (% control): 42 µg/mL
[3]
  IC50 (read off the curve), adhesion of αvβ3-transfected HEK293 cells to vitronectin (O.D. 600nM): ~0.1 µg/mL

B2: murine monoclonal antibody D12 (antibody, V domains shown)
VH: EIQLQQSGPEVVKPGASVKVSCKASGYAFTSYNMYWVKQSHGKSLEWIGYIDPYNGDTFYNQKFKGKATLTVDKSSSTAYMHLNSLTSEDSAVFYCARQNYGSFAYWGQGTLVTVSA
VL: DIVLTQSPATLSVTPGDSVSLSCRASQSISNHLHWYQQRSHESPRLLIKYASQSISGIPSRFRGSGSGTDFTLNINILETEDFGMYFCQQSNSWPFTFGSGTNLEIKR
notes: also called mAb D12; murine D12
[4]
  koff: 0.00041 s⁻¹
  kon: 770000 M⁻¹ s⁻¹
[5]
  fold higher affinity against human αvβ3 than against the rabbit receptor: 10 fold
[6]
  Kd: 0.53 nM
[1]
  Kd: 1.3 nM
[2]
  IC50, rabbit SMC migration (% control): 18 µg/mL
[7]
  Kd: 1 to 3 nM

B3: humanized D12 antibody HZ-D12 (IgG4) (antibody, V domains shown)
VH: B1 VH
VL: B1 VL
[1]
  Kd: 1.1 nM
